Laboratory results taken from patent US20260266848A1, “COMPOSITIONS AND METHODS FOR DIAGNOSING AND TREATING DYSTONIA” (Duke University, priority 2023, published 2026).

B1: Slc44a1 (protein, UniProt Q6X893 2-653, looked up)
Choline transporter-like …: GCCSSASAAQSSKREWKPLEDRSCTDIPWLLLFVLFCIGMGFICGFSVATGAAARLVSGYDSYGNICGQRNAKLEAIPNSGLDHTHRKYVFFLDPCNLDLINRKIKSIALCVAACPRQELKTLSDVQKFAEINGSALCSYNIKPSEYTLTSKSSGFCPKLPVPASAPIPFFHRCAPVNISCYAKFAEALITFVSDNSVLHRLISGVMTSKEIILGLCLLSLVLSMILMVIIRYISRVLVWILTVLVILGSLGGTGVLWWLYAKQRRSPKEAVIPEQLQIAEDNLRALLIYAISATVFTVILFLIMLVMRKRVALTIALFHVAGKVFIHLPLLVFQPFWTFFALVLFWAYWIMTLLFLGTTGSAVQNEQGFVEYKISGPLQYMWWYHVVGLIWISEFILACQQMTVAGAVVTYYFTRDKRNLPFTPILASVNRLIRYHLGTVAKGSFIITLVKIPRMVLMYIHSQLKGKENACARCMLKSCICCLWCLEKCLSYLNQNAYTATAINSTNFCTSAKDAFVILVENALRVAAINTVGDFMLFLGKVLIVCSTGLAGIMLLNYQQDYTVWVLPLIIVCLFAFLVAHCFLSIYEMVVDVLFLCFAIDTKYNDGSPGREFYMDKVLMEFVENSRKAMKEAGKGGAADARELKPMLRKR
B2: Uba3 (protein, UniProt Q8C878 2-462, looked up)
NEDD8-activating enzyme E1 …: ADGEEPEKKRRRIEELLAEKMAVDGGCGDTGDWEGRWNHVKKFLERSGPFTHPDFEPSTESLQFLLDTCKVLVIGAGGLGCELLKNLALSGFRQIHVIDMDTIDVSNLNRQFLFRPKDVGRPKAEVAAEFLNDRVPNCNVVPHFNKIQDFNDTFYRQFHIIVCGLDSIIARRWINGMLISLLNYEDGVLDPSSIVPLIDGGTEGFKGNARVILPGMTACIECTLELYPPQVNFPMCTIASMPRLPEHCIEYVRMLQWPKEQPFGDGVPLDGDDPEHIQWIFQKSIERASQYNIRGVTYRLTQGVVKRIIPAVASTNAVIAAVCATEVFKIATSAYIPLNNYLVFNDVDGLYTYTFEAERKENCPACSQLPQNIQFSPSAKLQEVLDYLTNSASLQMKSPAITATLEGKNRTLYLQSVTSIEERTRPNLSKTLKELGLVDGQELAVADVTTPQTVLFKLHFT
B3: Scarb2 (protein, UniProt Q14108 1-478, looked up)
Lysosome membrane protein 2: MGRCCFYTAGTLSLLLLVTSVTLLVARVFQKAVDQSIEKKIVLRNGTEAFDSWEKPPLPVYTQFYFFNVTNPEEILRGETPRVEEVGPYTYRELRNKANIQFGDNGTTISAVSNKAYVFERDQSVGDPKIDLIRTLNIPVLTVIEWSQVHFLREIIEAMLKAYQQKLFVTHTVDELLWGYKDEILSLIHVFRPDISPYFGLFYEKNGTNDGDYVFLTGEDSYLNFTKIVEWNGKTSLDWWITDKCNMINGTDGDSFHPLITKDEVLYVFPSDFCRSVYITFSDYESVQGLPAFRYKVPAEILANTSDNAGFCIPEGNCLGSGVLNVSICKNGAPIIMSFPHFYQADERFVSAIEGMHPNQEDHETFVDINPLTGIILKAAKRFQINIYVKKLDDFVETGDIRTMVFPVMYLNESVHIDKETASRLKSMINTTLIITNIPYIIMALGVFFGLVFTWLACKGQGSMDEGTADERAPLIRT
B4: Esyt1 (protein, UniProt Q3U7R1 1-1092, looked up)
Extended synaptotagmin-1: MEHSPEEGASPEPSGQPPATDSTRDGGSGVPPAGPGAASEALAVLTSFGRRLLVLVPVYLAGAAGLSVGFVLFGLALYLGWRRVRDGKERSLRAARQLLDDEERITAETLYMSHRELPAWVSFPDVEKAEWLNKIVAQVWPFLGQYMEKLLAETVAPAVRGANPHLQTFTFTRVELGEKPLRIIGVKVHPSQRKDQILLDLNVSYVGDVQIDVEVKKYFCKAGVKGMQLHGVLRVILEPLTGDLPIVGAVSMFFIKRPTLDINWTGMTNLLDIPGLSSLSDTMIMDSIAAFLVLPNRLLVPLVPDLQDVAQLRSPLPRGIIRIHLLAARGLSSKDKYVKGLIEGKSDPYALVRVGTQTFCSRVIDEELNPHWGETYEVIVHEVPGQEIEVEVFDKDPDKDDFLGRMKLDVGKVLQAGVLDNWYPLQGGQGQVHLRLEWLSLLPDAEKLDQVLQWNRGITSRPEPPSAAILVVYLDRAQDLPLKKGNKEPNPMVQLSVQDVTRESKATYSTNSPVWEEAFRFFLQDPRSQELDVQVKDDSRALTLGALTLPLARLLTASELTLDQWFQLSSSGPNSRLYMKLVMRILYLDYSEIRFPTVPGAQDWDRESLETGSSVDAPPRPYHTTPNSHFGTENVLRIHVLEAQDLIAKDRFLGGLVKGKSDPYVKLKVAGKSFRTHVVREDLNPRWNEVFEVIVTSIPGQELEIEVFDKDLDKDDFLGRYKVSLTTVLNSGFLDEWLTLEDVPSGRLHLRLERLTPRPTAAELEEVLQVNSLIQTQKSSELAAALLSVFLERAEDLPLRKGTKPPSPYATITVGETSHKTKTVSQSSAPVWEESASFLIRKPHAESLELQVRGEGTGTLGSVSLPLSELLQEDQLCLDHWFALSGQGQVLMRAQLGILVSQHSGVEAHSHSYSHSHSSSSLNDEPEALGGPTHPASPVLEVRHRLTHGDSPSEAPVGPLGQVKLTVWYHSDEQKLISIIHSCRALRQNGRDLPDPYVSVLLLPDKNRSTKRKTPQKKRTLNPEFNERFEWDLPLDGTLRRKLDVSVKSNSSFMSRERELLGKVQLDLAEIDLSQGAAQWYDLMDDRDKGGS
B5: Apom (protein, UniProt Q9Z1R3 1-190, looked up)
Apolipoprotein M: MFHQVWAALLSLYGLLFNSMNQCPEHSQLTALGMDDTETPEPHLGLWYFIAGAASTTEELATFDPVDNIVFNMAAGSAPRQLQLRATIRTKSGVCVPRKWTYRLTEGKGNMELRTEGRPDMKTDLFSSSCPGGIMLKETGQGYQRFLLYNRSPHPPEKCVEEFQSLTSCLDFKAFLVTPRNQEACPLSSK
B6: Slc25a5 (protein, UniProt P51881 1-298, looked up)
ADP/ATP translocase 2: MTDAAVSFAKDFLAGGVAAAISKTAVAPIERVKLLLQVQHASKQITADKQYKGIIDCVVRIPKEQGVLSFWRGNLANVIRYFPTQALNFAFKDKYKQIFLGGVDKRTQFWRYFAGNLASGGAAGATSLCFVYPLDFARTRLAADVGKAGAEREFKGLGDCLVKIYKSDGIKGLYQGFNVSVQGIIIYRAAYFGIYDTAKGMLPDPKNTHIFISWMIAQSVTAVAGLTSYPFDTVRRRMMMQSGRKGTDIMYTGTLDCWRKIARDEGSKAFFKGAWSNVLRGMGGAFVLVLYDEIKKYT
B7: Ilf3 (protein, UniProt Q9Z1X4 1-898, looked up)
Interleukin enhancer-binding …: MRPMRIFVNDDRHVMAKHSSVYPTQEELEAVQNMVSHTERALKAVSDWIDEQEKGNSELSEAENMDTPPDDESKEGAGEQKAEHMTRTLRGVMRVGLVAKGLLLKGDLDLELVLLCKEKPTTALLDKVADNLAIQLTTVTEDKYEILQSVDDAAIVIKNTKEPPLSLTIHLTSPVVREEMEKVLAGETLSVNDPPDVLDRQKCLAALASLRHAKWFQARANGLKSCVIVIRVLRDLCTRVPTWGPLRGWPLELLCEKSIGTANRPMGAGEALRRVLECLASGIVMPDGSGIYDPCEKEATDAIGHLDRQQREDITQSAQHALRLAAFGQLHKVLGMDPLPSKMPKKPKNENPVDYTVQIPPSTTYAITPMKRPMEEDGEEKSPSKKKKKIQKKEEKADPPQAMNALMRLNQLKPGLQYKLISQTGPVHAPIFTMSVEVDGSNFEASGPSKKTAKLHVAVKVLQDMGLPTGAEGRDSSKGEDSAEESDGKPAIVAPPPVVEAVSNPSSVFPSDATTEQGPILTKHGKNPVMELNEKRRGLKYELISETGGSHDKRFVMEVEVDGQKFQGAGSNKKVAKAYAALAALEKLFPDTPLALEANKKKRTPVPVRGGPKFAAKPHNPGFGMGGPMHNEVPPPPNIRGRGRGGNIRGRGRGRGFGGANHGGGYMNAGAGYGSYGYSSNSATAGYSQFYSNGGHSGNAGGGGSGGGGGSSSYSSYYQGDSYNSPVPPKHAGKKPLHGGQQKASYSSGYQSHQGQQQPYNQSQYSSYGTPQGKQKGYGHGQGSYSSYSNSYNSPGGGGGSDYSYDSKFNYSGSGGRSGGNSYGSSGSSSYNTGSHGGYGTGSGGSSSYQGKQGGYSSQSNYSSPGSSQSYSGPASSYQSSQGGYSRNTEHSMNYQYR

Test system: DYT-TOR1A MEF EVs
Assay: Quantitative LC-MS/MS proteomics of EVs from drug-treated DYT-TOR1A MEF cultures (ritonavir, salubrinal)
Type: cell-based, mouse
Set-up: key to RTV Corrective Direction / RTV Corrective Direction, Grwd1 / RTV Corrective Direction, Srrm2 / RTV Corrective Direction, Rbm17 / RTV Corrective Direction, Dcaf8 / RTV Corrective Direction, Edil3 / RTV Corrective Direction, Timp3 / RTV Corrective Direction, Heatr3 / RTV Corrective Direction, Brd4 / RTV Corrective Direction, P3h4 / RTV Corrective Direction, Pacsin3 / RTV Corrective Direction, Naa50 / RTV Corrective Direction, Lpar6 / RTV Corrective Direction, Ndrg1 / RTV Corrective Direction, Kntc1 / RTV Corrective Direction, Cdk11b / RTV Corrective Direction, Sumo1 / RTV Corrective Direction, Lsm4 / RTV Corrective Direction, Hmga2 / RTV Corrective Direction, Cstf1 / RTV Corrective Direction, Tes / RTV Corrective Direction, Sbno1 / RTV Corrective Direction, Unc119b / RTV Corrective Direction, Cfdp1 / RTV Corrective Direction, Sec61b: YES = protein abundance effect opposite to DYT/WT
Conditions: EV protein abundance, DYT + RTV (ritonavir) vs DYT, direction compared with DYT/WT

Molecule | RTV Corrective Direction
B1 | YES
B2 | YES
B3 | YES
B4 | YES

Same assay, conditions: EV protein abundance, ritonavir (RTV)-treated DYT vs DYT

Molecule | DYT + RTV/DYT Cohen's d
B5 | 0.40
B1 | 0.84
B2 | 10.01
B6 | −0.78
B3 | 0.24
B4 | 1.25
B7 | −1.23

Test system: WT MEF EVs
Assay: Quantitative LC-MS/MS proteomics of EVs from ISRIB-treated WT MEF cultures
Type: cell-based, mouse
Set-up: key to ISRIB and DYT Parallel Direction / ISRIB and DYT Parallel Direction, Ctdsp1 / ISRIB and DYT Parallel Direction, Pcdh19 / ISRIB and DYT Parallel Direction, Tspan7 / ISRIB and DYT Parallel Direction, Myo1e / ISRIB and DYT Parallel Direction, Plpp3 / ISRIB and DYT Parallel Direction, Sh3bp4 / ISRIB and DYT Parallel Direction, Dnajc7 / ISRIB and DYT Parallel Direction, Drg1 / ISRIB and DYT Parallel Direction, Maea: YES = protein abundance effect similar to DYT/WT
Conditions: EV protein abundance, ISRIB-treated WT vs WT

Molecule | WT + ISRIB/WT Cohen's d
B5 | 2.53
B1 | 0.80
B2 | −1.68
B6 | −0.54
B3 | 0.09
B4 | 0.18
B7 | −4.89

Same assay, conditions: EV protein abundance, WT + ISRIB vs WT, direction compared with DYT/WT

Molecule | ISRIB and DYT Parallel Direction
B5 | YES
B2 | YES
B6 | YES
B7 | YES
